B1: Kinetochore protein NDC80 homolog (Homo sapiens), O14777 (parent)
chain: MKRSSVSSGGAGRLSMQELRSQDVNKQGLYTPQTKEKPTFGKLSINKPTSERKVSLFGKRTSGHGSRNSQLGIFSSSEKIKDPRPLNDKAFIQQCIRQLCEFLTENGYAHNVSMKSLQAPSVKDFLKIFTFLYGFLCPSYELPDTKFEEEVPRIFKDLGYPFALSKSSMYTVGAPHTWPHIVAALVWLIDCIKIHTAMKESSPLFDDGQPWGEETEDGIMHNKLFLDYTIKCYESFMSGADSFDEMNAELQSKLKDLFNVDAFKLESLEAKNRALNEQIARLEQEREKEPNRLESLRKLKASLQGDVQKYQAYMSNLESHSAILDQKLNGLNEEIARVELECETIKQENTRLQNIIDNQKYSVADIERINHERNELQQTINKLTKDLEAEQQKLWNEELKYARGKEAIETQLAEYHKLARKLKLIPKGAENSKGYDFEIKFNPEAGANCLVKYRAQVYVPLKELLNETEEEINKALNKKMGLEDTLEQLNAMITESKRSVRTLKEEVQKLDDLYQQKIKEAEEEDEKCASELESLEKHKHLLESTVNQGLSEAMNELDAVQREYQLVVQTTTEERRKVGNNLQRLLEMVATHVGSVEKHLEEQIAKVDREYEECMSEDLSENIKEIRDKYEKKATLIKSSEE
partner: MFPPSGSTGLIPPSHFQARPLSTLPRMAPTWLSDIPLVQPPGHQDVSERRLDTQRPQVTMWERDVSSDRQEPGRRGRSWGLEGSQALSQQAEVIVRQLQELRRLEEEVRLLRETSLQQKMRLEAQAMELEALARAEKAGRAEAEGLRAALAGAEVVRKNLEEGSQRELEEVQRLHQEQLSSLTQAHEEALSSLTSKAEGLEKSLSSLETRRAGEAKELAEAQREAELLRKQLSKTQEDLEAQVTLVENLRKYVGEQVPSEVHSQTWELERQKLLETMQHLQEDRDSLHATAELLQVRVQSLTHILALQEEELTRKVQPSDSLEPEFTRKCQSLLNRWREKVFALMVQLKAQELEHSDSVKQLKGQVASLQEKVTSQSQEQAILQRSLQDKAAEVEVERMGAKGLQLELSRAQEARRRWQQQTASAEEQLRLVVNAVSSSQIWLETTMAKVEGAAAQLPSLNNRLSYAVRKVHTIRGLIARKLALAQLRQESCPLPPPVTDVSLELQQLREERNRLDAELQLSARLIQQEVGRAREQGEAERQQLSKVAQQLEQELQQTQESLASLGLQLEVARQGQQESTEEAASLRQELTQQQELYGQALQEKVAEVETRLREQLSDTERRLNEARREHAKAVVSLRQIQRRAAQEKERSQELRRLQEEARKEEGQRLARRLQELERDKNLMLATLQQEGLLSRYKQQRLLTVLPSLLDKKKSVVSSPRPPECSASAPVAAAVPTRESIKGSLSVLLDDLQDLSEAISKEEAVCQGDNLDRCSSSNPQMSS
B2: Protein VAC14 homolog (Homo sapiens), Q08AM6 (parent)
chain: MNPEKDFAPLTPNIVRALNDKLYEKRKVAALEIEKLVREFVAQNNTVQIKHVIQTLSQEFALSQHPHSRKGGLIGLAACSIALGKDSGLYLKELIEPVLTCFNDADSRLRYYACEALYNIVKVARGAVLPHFNVLFDGLSKLAADPDPNVKSGSELLDRLLKDIVTESNKFDLVSFIPLLRERIYSNNQYARQFIISWILVLESVPDINLLDYLPEILDGLFQILGDNGKEIRKMCEVVLGEFLKEIKKNPSSVKFAEMANILVIHCQTTDDLIQLTAMCWMREFIQLAGRVMLPYSSGILTAVLPCLAYDDRKKSIKEVANVCNQSLMKLVTPEDDELDELRPGQRQAEPTPDDALPKQEGTASGGPDGSCDSSFSSGISVFTAASTERAPVTLHLDGIVQVLNCHLSDTAIGMMTRIAVLKWLYHLYIKTPRKMFRHTDSLFPILLQTLSDESDEVILKDLEVLAEIASSPAGQTDDPGPLDGPDLQASHSELQVPTPGRAGLLNTSGTKGLECSPSTPTMNSYFYKFMINLLKRFSSERKLLEVRGPFIIRQLCLLLNAENIFHSMADILLREEDLKFASTMVHALNTILLTSTELFQLRNQLKDLKTLESQNLFCCLYRSWCHNPVTTVSLCFLTQNYRHAYDLIQKFGDLEVTVDFLAEVDKLVQLIECPIFTYLRLQLLDVKNNPYLIKALYGLLMLLPQSSAFQLLSHRLQCVPNPELLQTEDSLKAAPKSQKADSPSIDYAELLQHFEKVQNKHLEVRHQRSGRGDHLDRRVVL

Variants of: B1
Settings: with cchcr_human CCHCR1, Q8TD31

Row | Variant | effect of a mutation on the interaction
1 | K288E | with no effect

Variants of: B2
Settings: with fnd3b_human FNDC3B

Row | Variant | effect of a mutation on the interaction
2 | A127S | with no effect

Variants of: B2
Settings: with at2l2_human PHYKPL

Row | Variant | effect of a mutation on the interaction
3 | A127S | with no effect

Variants of: B2
Settings: with cd209_human CD209, Q9NNX6
Chain of cd209_human CD209, Q9NNX6 (Q9NNX6 whole entry): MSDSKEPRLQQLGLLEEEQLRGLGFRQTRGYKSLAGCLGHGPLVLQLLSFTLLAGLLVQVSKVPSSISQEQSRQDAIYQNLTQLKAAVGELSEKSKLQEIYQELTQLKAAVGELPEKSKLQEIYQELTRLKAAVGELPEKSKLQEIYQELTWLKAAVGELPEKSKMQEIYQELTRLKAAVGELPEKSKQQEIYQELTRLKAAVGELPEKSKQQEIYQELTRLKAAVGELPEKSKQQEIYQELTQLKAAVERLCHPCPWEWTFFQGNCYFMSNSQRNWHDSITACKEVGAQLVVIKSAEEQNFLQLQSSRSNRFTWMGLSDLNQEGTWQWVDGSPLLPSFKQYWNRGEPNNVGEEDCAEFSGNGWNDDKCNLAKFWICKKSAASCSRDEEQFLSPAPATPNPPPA

Row | Variant | effect of a mutation on the interaction
4 | A127S | with no effect

Variants of: B2
Settings: with myome_human PDE4DIP

Row | Variant | effect of a mutation on the interaction
5 | A127S | with no effect

Variants of: B2
Settings: with co8a1_human COL8A1, P27658
Chain of co8a1_human COL8A1, P27658 (P27658 whole entry): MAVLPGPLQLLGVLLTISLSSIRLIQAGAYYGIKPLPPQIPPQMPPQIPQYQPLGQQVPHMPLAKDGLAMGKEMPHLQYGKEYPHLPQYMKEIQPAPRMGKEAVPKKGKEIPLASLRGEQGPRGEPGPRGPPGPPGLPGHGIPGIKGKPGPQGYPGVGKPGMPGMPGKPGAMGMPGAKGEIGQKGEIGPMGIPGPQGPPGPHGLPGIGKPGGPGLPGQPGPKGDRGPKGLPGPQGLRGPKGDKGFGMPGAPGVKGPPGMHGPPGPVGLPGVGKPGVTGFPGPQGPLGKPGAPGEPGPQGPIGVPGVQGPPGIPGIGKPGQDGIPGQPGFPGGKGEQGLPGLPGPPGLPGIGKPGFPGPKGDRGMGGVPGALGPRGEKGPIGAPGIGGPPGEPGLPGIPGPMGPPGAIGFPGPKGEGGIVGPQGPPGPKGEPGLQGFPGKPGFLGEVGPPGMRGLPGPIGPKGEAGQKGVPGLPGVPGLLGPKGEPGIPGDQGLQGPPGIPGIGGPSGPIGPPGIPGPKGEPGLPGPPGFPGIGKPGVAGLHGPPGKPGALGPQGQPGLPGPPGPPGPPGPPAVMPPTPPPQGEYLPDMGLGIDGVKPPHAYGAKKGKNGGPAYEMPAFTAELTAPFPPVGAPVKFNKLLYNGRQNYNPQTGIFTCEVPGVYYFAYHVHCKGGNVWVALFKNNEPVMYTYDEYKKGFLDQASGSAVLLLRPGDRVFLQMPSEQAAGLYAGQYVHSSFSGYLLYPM

Row | Variant | effect of a mutation on the interaction
6 | A127S | with no effect

Variants of: B2
Settings: with znf34_human ZNF34, Q8IZ26
Chain of znf34_human ZNF34, Q8IZ26 (Q8IZ26 whole entry): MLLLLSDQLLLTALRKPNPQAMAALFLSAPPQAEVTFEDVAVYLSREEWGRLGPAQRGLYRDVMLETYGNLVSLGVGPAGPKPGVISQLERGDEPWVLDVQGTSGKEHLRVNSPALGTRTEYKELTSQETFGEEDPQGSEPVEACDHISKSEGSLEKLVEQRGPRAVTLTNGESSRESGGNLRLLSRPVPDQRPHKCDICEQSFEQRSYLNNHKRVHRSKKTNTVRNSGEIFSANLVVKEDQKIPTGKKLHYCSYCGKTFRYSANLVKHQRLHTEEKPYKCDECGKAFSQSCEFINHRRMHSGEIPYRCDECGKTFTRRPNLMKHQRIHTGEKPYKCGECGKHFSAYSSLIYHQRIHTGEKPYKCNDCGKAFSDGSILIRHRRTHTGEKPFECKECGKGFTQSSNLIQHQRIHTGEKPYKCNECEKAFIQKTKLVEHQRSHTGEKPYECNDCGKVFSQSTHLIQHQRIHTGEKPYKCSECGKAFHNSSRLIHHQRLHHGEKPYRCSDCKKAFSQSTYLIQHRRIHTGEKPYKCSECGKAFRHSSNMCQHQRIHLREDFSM

Row | Variant | effect of a mutation on the interaction
7 | A127S | with no effect

Variants of: B2
Settings: with ntaq1_human NTAQ1, Q96HA8
Chain of ntaq1_human NTAQ1, Q96HA8 (Q96HA8 whole entry): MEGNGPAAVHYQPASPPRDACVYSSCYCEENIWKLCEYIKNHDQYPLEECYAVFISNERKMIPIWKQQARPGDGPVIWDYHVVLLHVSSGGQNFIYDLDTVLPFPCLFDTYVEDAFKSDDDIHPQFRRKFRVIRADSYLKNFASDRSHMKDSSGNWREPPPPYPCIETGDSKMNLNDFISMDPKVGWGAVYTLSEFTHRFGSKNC

Row | Variant | effect of a mutation on the interaction
8 | A127S | with no effect

Variants of: B2
Settings: with casp1_human CASP1, P29466
Chain of casp1_human CASP1, P29466 (P29466 whole entry): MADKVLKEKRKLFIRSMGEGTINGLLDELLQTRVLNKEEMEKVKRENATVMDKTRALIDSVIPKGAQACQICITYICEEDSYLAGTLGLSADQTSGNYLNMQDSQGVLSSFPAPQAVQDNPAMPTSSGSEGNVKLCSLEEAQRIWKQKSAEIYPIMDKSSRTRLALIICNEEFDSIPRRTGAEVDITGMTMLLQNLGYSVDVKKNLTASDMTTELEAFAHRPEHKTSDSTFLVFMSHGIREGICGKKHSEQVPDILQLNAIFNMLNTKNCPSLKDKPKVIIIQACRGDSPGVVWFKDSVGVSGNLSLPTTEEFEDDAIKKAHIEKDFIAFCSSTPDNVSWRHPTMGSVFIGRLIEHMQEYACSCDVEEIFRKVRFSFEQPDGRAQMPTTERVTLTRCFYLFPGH

Row | Variant | effect of a mutation on the interaction
9 | A127S | with no effect

Variants of: B2
Settings: with fyv1_human PIKFYVE

Row | Variant | effect of a mutation on the interaction
10 | A127S | with no effect
